Our source for the binding signal values is publication PMC5892938, “SARNAclust: Semi-automatic detection of RNA protein binding motifs from immunoprecipitation data”.

For this series, the target named is GST-SBP-SLBP (stem-loop binding protein) (Homo sapiens, UniProt Q14493 1-270). The series can be described thus: targeted RNA Bind-n-Seq; RBNS binding buffer: 25 mM Tris pH 7.5, 150 mM KCl, 3 mM MgCl2, 0.1% Tween, 0.5 mg/mL BSA, 1 mM DTT; 27 nM protein, 750 pM RNA pool; temperature not stated; high values mean tight binding. To be noted: protein: recombinant; tags: N-terminal GST and SBP (pGEX6P1-SBP). An outline of the steps:
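A designed RNA oligo pool, transcribed with T7, was present at 750 pM and incubated in RBNS binding buffer with 27 nM of GST-SBP-tagged protein that had been expressed in Rosetta(DE3) pLysS E. coli and purified with glutathione. After reverse transcription with a 10-nucleotide barcoded primer and PCR, the bound RNA was sequenced as 200-cycle paired-end reads on a MiSeq. Each sequence's binding signal is the DEseq binary-logarithm fold change in read counts, computed after joining reads with FLASH, aligning with HISAT2 and collapsing by barcode.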

Where a chain is given by its changes, count along the chain named.

B1: consensus (structured_RNA)
RNA: GGUCACGUCUCAAUCAACUCCCAAAGGUCUUUUUAAAGACCACCCAUCAACAGCUCGCAGUCAAG
For B1, the binding signal was 3.5 ± 0.12 log2 fold change.

B2: consensus (structured_RNA)
RNA: B1 RNA with U28C, C29U, U30C, A35C, A37G, G38A, A39G
As to B2, the binding signal amounted to 3.73 ± 0.129 log2 fold change.

B3: consensus (structured_RNA)
RNA: B1 RNA with C29U, U30C, A37G, G38A, A39G
In the case of B3, the binding signal is 2.97 ± 0.121 log2 fold change.

B4: consensus (structured_RNA)
RNA: B1 RNA with A35C, A39G
Regarding B4, the binding signal was 3.26 ± 0.121 log2 fold change.

B5: consensus (structured_RNA)
RNA: B1 RNA with U28C, C29U, U33C, A35C, A39G
On to B5, for which the binding signal was found to be 2.96 ± 0.136 log2 fold change.

B6: consensus (structured_RNA)
RNA: B1 RNA with U30C, A35G, A37G
For the molecule B6, the binding signal was determined as 3.06 ± 0.144 log2 fold change.

B7: consensus (structured_RNA)
RNA: B1 RNA with U28C, C29U, U30C, A37G, G38A, A39G
Turning to B7, the binding signal was found to be 3.5 ± 0.152 log2 fold change.

B8: consensus (structured_RNA)
RNA: B1 RNA with U28C, C29U, G38A, A39G
B8: the binding signal is 3.48 ± 0.133 log2 fold change.

B9: consensus (structured_RNA)
RNA: B1 RNA with U28C, C29U, A39G
For the molecule B9, the binding signal worked out at 3.16 ± 0.137 log2 fold change.

B10: consensus (structured_RNA)
RNA: B1 RNA with C29U, U30C, A35C, A37G, G38A, A39G
Turning to B10, the binding signal was 2.98 ± 0.121 log2 fold change.

B11: consensus (structured_RNA)
RNA: B1 RNA with U28C, C29U, U30C, A35U, A37G, G38A, A39G
For B11, the binding signal amounted to 3.17 ± 0.142 log2 fold change.

B12: consensus (structured_RNA)
RNA: B1 RNA with U33C, A35C
Regarding B12, the binding signal amounted to 3.5 ± 0.113 log2 fold change.

B13: consensus (structured_RNA)
RNA: B1 RNA with U28C, C29U, U33C, A39G
With B13, the binding signal was determined as 2.99 ± 0.126 log2 fold change.

B14: consensus (structured_RNA)
RNA: B1 RNA with C29U, U30C, A35C, A37G
Regarding B14, the binding signal was determined as 3 ± 0.116 log2 fold change.

B15: consensus (structured_RNA)
RNA: B1 RNA with U28C, C29U, A35C, A39G
Turning to B15, the binding signal came to 3.17 ± 0.125 log2 fold change.

B16: consensus (structured_RNA)
RNA: B1 RNA with U33C, A39G
Take B16: the binding signal came to 3.19 ± 0.133 log2 fold change.

B17: consensus (structured_RNA)
RNA: B1 RNA with C29U, U30C, A37G
As for B17, the binding signal came out at 2.99 ± 0.127 log2 fold change.

B18: consensus (structured_RNA)
RNA: B1 RNA with U28C, C29U, A35C, G38A, A39G
For the molecule B18, the binding signal is 3.5 ± 0.119 log2 fold change.

B19: consensus (structured_RNA)
RNA: B1 RNA with U28C, U33C, A39G
For B19, the binding signal stood at 3.74 ± 0.124 log2 fold change.

B20: consensus (structured_RNA)
RNA: B1 RNA with U28C, A35C, A39G
Regarding B20, the binding signal is 3.7 ± 0.124 log2 fold change.

B21: consensus (structured_RNA)
RNA: B1 RNA with U28C, C29U, U30C, U33C, A37G, A39G
On to B21, for which the binding signal was found to be 3.19 ± 0.123 log2 fold change.

B22: consensus (structured_RNA)
RNA: B1 RNA with U28C, U33C, A35G, A39G
Take B22: the binding signal turned out to be 3.32 ± 0.133 log2 fold change.

B23: consensus (structured_RNA)
RNA: B1 RNA with U28C, U30C, U33C, A35C, A37G, A39G
Turning to B23, the binding signal came out at 3.69 ± 0.158 log2 fold change.

B24: consensus (structured_RNA)
RNA: B1 RNA with C29U, U33C, G38A
With B24, the binding signal was determined as 3.04 ± 0.144 log2 fold change.

B25: consensus (structured_RNA)
RNA: B1 RNA with U28C, U30C, U33C, A35G, A37G, A39G
Consider B25, for which the binding signal is 3.16 ± 0.18 log2 fold change.

B26: consensus (structured_RNA)
RNA: B1 RNA with U30C, U33C, A35C, A37G, A39G
Turning to B26, the binding signal was found to be 3.16 ± 0.131 log2 fold change.

B27: consensus (structured_RNA)
RNA: B1 RNA with U30C, U33C, A35C, A37G
For the molecule B27, the binding signal stood at 3.44 ± 0.13 log2 fold change.

B28: consensus (structured_RNA)
RNA: B1 RNA with U28C, C29U, U33C, A35U, G38A, A39G
As for B28, the binding signal was found to be 3 ± 0.122 log2 fold change.

B29: consensus (structured_RNA)
RNA: B1 RNA with U28C, C29U, U30C, U33C, A35U, A37G, G38A, A39G
Turning to B29, the binding signal stood at 3.11 ± 0.136 log2 fold change.

B30: consensus (structured_RNA)
RNA: B1 RNA with U30C, U33C, A37G, A39G
With B30, the binding signal came out at 3.27 ± 0.13 log2 fold change.

B31: consensus (structured_RNA)
RNA: B1 RNA with U30C, A35C, A37G, A39G
As to B31, the binding signal is 3.33 ± 0.12 log2 fold change.

B32: consensus (structured_RNA)
RNA: B1 RNA with U30C, U33C, A35U, A37G
On to B32, for which the binding signal came out at 3.13 ± 0.132 log2 fold change.

B33: consensus (structured_RNA)
RNA: B1 RNA with U33C, A35U
With B33, the binding signal came out at 3.14 ± 0.132 log2 fold change.

B34: consensus (structured_RNA)
RNA: B1 RNA with C29U, U30C, A35C, A37G, G38A
Regarding B34, the binding signal was 3.44 ± 0.114 log2 fold change.

B35: consensus (structured_RNA)
RNA: B1 RNA with U33C
With B35, the binding signal amounted to 3.73 ± 0.129 log2 fold change.

B36: consensus (structured_RNA)
RNA: B1 RNA with U30C, A37G, A39G
In the case of B36, the binding signal came to 3.26 ± 0.128 log2 fold change.

B37: consensus (structured_RNA)
RNA: B1 RNA with U28C, C29U, U30C, A37G, A39G
For B37, the binding signal worked out at 3.07 ± 0.12 log2 fold change.

B38: consensus (structured_RNA)
RNA: B1 RNA with U28C, U30C, A35G, A37G, A39G
For B38, the binding signal stood at 3.37 ± 0.174 log2 fold change.

B39: consensus (structured_RNA)
RNA: B1 RNA with C29U, U30C, U33C, A37G, G38A
B39: the binding signal was 3.04 ± 0.122 log2 fold change.

B40: consensus (structured_RNA)
RNA: B1 RNA with U28C, U30C, U33C, A35U, A37G, A39G
B40: the binding signal is 3.46 ± 0.16 log2 fold change.

B41: consensus (structured_RNA)
RNA: B1 RNA with U28C, C29U, U33C, A35C, G38A, A39G
For the molecule B41, the binding signal worked out at 3.24 ± 0.124 log2 fold change.

B42: consensus (structured_RNA)
RNA: B1 RNA with U28C, C29U, U33C, G38A, A39G
In the case of B42, the binding signal came out at 3.29 ± 0.116 log2 fold change.

B43: consensus (structured_RNA)
RNA: B1 RNA with A39G
Regarding B43, the binding signal came out at 3.18 ± 0.125 log2 fold change.

B44: consensus (structured_RNA)
RNA: B1 RNA with C29U, U30C, U33C, A35C, A37G, G38A
On to B44, for which the binding signal came to 3.02 ± 0.121 log2 fold change.

B45: consensus (structured_RNA)
RNA: B1 RNA with U30C, A35U, A37G
For the molecule B45, the binding signal was determined as 3.37 ± 0.117 log2 fold change.

B46: consensus (structured_RNA)
RNA: B1 RNA with C29U, U30C, A37G, G38A
For the molecule B46, the binding signal was determined as 3.2 ± 0.125 log2 fold change.

B47: consensus (structured_RNA)
RNA: B1 RNA with A35U
In the case of B47, the binding signal was determined as 3.2 ± 0.118 log2 fold change.

B48: consensus (structured_RNA)
RNA: B1 RNA with U28C, C29U, U30C, U33C, A37G, G38A, A39G
As to B48, the binding signal came to 3.2 ± 0.135 log2 fold change.

B49: consensus (structured_RNA)
RNA: B1 RNA with U28C, C29U, U30C, U33C, A35C, A37G, A39G
As to B49, the binding signal was 3.04 ± 0.124 log2 fold change.

B50: consensus (structured_RNA)
RNA: B1 RNA with U30C, U33C, A37G
As to B50, the binding signal stood at 3.48 ± 0.135 log2 fold change.

B51: consensus (structured_RNA)
RNA: B1 RNA with C29U, A35C, G38A
Take B51: the binding signal is 3.04 ± 0.195 log2 fold change.

B52: consensus (structured_RNA)
RNA: B1 RNA with U28C, U30C, A35U, A37G, A39G
For the molecule B52, the binding signal is 3.48 ± 0.162 log2 fold change.

B53: consensus (structured_RNA)
RNA: B1 RNA with U28C, C29U, U30C, U33C, A35C, A37G, G38A, A39G
With B53, the binding signal was 3.23 ± 0.14 log2 fold change.

B54: consensus (structured_RNA)
RNA: B1 RNA with U28C, A35G, A39G
Regarding B54, the binding signal was 3.34 ± 0.155 log2 fold change.
